Drawing on a protein production outcome set (Wang et al. 2014), this text covers protein production for 21 sequences.

The nature of this series: label from the status in PepcDB records.
In the case of “MTLAARETAALDSVPEPPLADQLRAMDHLDALEAQSIYILREAFARLKKLALLWSLGKDSNVMIWLARKAFFGRVPFPALHVDTGKKFPEMYAFRDIYAKEWDLDLRVDPCPPIDSVDPTLPPAARSAARKTEGLKLALAKYGFDGLIAGIRRDEEATRAKERVFSPRGVEGGWDVRDQPAEFWDQFNASPPPGAHLRIHPILHWTEADIWAYTKREGIPIIPLYLSQNGKRYRSLGDQDITFPVNSNAASIDEILLELETTKVPERAGRALDHETEDAFERLRVAGYL”, the protein production result is given as “failed”.
The value for “MTTGDGRSRLLAAATRLIRTQGFAATSVEAICREAGVTKGAFFHHFPSKEALGVAAAEAWSDVTGRLFAEAPYHRPADPLDRVLAYIDFRRALVAGEIADYTCLVGTLVQEAYGSDPIRAACGASILGHAGTLEADMAAAAEARGVADVDPASLARHTQAVLQGAFILAKAGGGAAAVEEALDHLKRYLRLLFANPGASGA” was “failed”.
Turning to “MKALVVSDDINFLKQACTLVNGKAEYDAVYVGEGRVSGVGASTLYTVKKGTPYDAVADGILEIMGNYDIIVAGSTEFGREVAGYIAGKTGYYAATEIFSLEFSNGKAKTKRFFYGGKTVIEEESDAKVFTVAPGVIEAKEFESKPEEKDLPIKPSKVRVNKVVPKNAGGVR”, the protein production entry is reported as “failed”.
Take “MTLQETLNSEYQISFEEAQATAKIVDDLAEAEQKLKNLERQIKALGPINLDAIAQFDEVNERFTFLSSQKDDLLEAKNLLLSTIDDMNDEVKIRFKTSFDAIRESFKTTFAQMFVSGLADLELTSDNLLEAGVEIKVQPPGKKLSSLNLMSGGEKALTALALIFAILRVRTVPFVVLDEVEAALDEANVKRFGDYMNHFDNSNQFIVVTHRRGTMAAAGSMYGVTMADAGVSKMISVKLDSAIN”: the protein production entry is “failed”.
For the sequence “MPTYLFLSSGNVLADRRYDFARELLARGEAEAAADLLAQAVELAPDFTSAWFALGEIRQDRLGNREGAVDAFRRARAADPRDRHGAGLRLMRLGAADLDAMSPAYIGALFDQYAPRFDKSLVEDLGYRGPALLFEAVREVCETTGRAMAFRRAIDLGCGTGLVGRAFAPIISEIIGFDLAPQMIERARATGVYGRLAVTDLVQGLANEPPASAELILAADVLIYIQDVAPLLHEAARVLPPGGLLAVTAETHAGDGVVLTAGLRFAQAESYLRAELERAGLVVALLQYASARNEKHTPLPGLVVVAFRPNG”, the protein production entry is listed as “failed”.
As to “PTLDSVEDGVLKKVVINISNSCNLSCSYCYADGGNYGMDNRIMDLTTADNIIQEIASKGVTQINRLILFGGEPFLNIELFIYFIEKLSTLLNVVKIETVTNGTVLNKRVKEMLVKFHPYLTISLDGPEIVHDRLRGRGSHRKTLRFINYLKNIDYE”, the protein production result is “failed”.
With “MTEHSLWRFSRALHRALNDRQTEELATIIDDNIDWAIYGPIDMFPFFGARQGKAAVLEVCRQIADSVRIYRYHRESVMLGIDSAASMVRYSLTAAGTNRPISVRMALFTQFQNGRLTNLRMVLDTFDLVEQALGRPIHLPKIA”, the protein production result is reported as “not failed”.
With “MKLLIKKITYIIFILCSYCSYGEAKIQLPSILGNGMVLQQKSEVRLWGKATPNKKVTIYTSWNAQQQEVNSNKKGDWIVTVTTPEAGGPYTIRISDGEELLLDDVLIGEVWLCSGQSNMEMPVKGFRGQPAAESQNTIVNVNPNRSLRLFTVQRAYSSILEEDVTGQWEKNTPKSVSTFSAVAYYYGDQLQKVLGIPVGLIHASWSGSSIEPWISKENLLQFPEVDLTPAENPQLKYANGTPTVLYNAMIKPLENYNIKGMIWYQGESNSARPEQYQRLFAVWAKQNRALFRSKDLPIYYTEIAPVASPVDRPFQRAIFREAQLESMHEVSNTGMAFTNDLGSEKFIHAPKKREIGQRLAYWALAKTYQLEGFEYSGPIHRSYMKNGKIIEILFDHADDGLNPENEPLVGFEIASEDSIFYPANAEIINGTSRVKVWSDKVAQPVYVRYAFRNFLRGNLVNNAGLPAAPFRMDLRKMDFQNPEKLGWARVTTFGKLPEYISVYHSPEWIESTRTNAYIAVVDTKKGGSLDVGGADSGVKTPIEFYQSEKRKPSIVLNGGYFANGRTVSLICKNGKILSDNISVVNRLLEGKKTAYYPTRSVFSLYTDGTYHVDWIYKSAQQTYAYDMPALNSSTRPPLSVPSKGFPKGAKVWTAEMGIGAGPILIKDGTIRNSWVEELLDVASGINPQTCQPRSAVGVTQDGKLILFVCEGREQTPDIPGMTLAQLARLMRSFGCVDALNLDGGGSSCMLINGKETIKPCNKYHHQRPVATVLFAR”, the protein production result is listed as “failed”.
On to “MTGRVCVLVMDSFGIGASLDAARYGDAGANTLVHIYEACKRGECDIEGVRKGPLMLPNLAGKGLYHAAMASSGLSFIDLATLAIPSGYYGYAVEQSLGKDTPSGHWEMAGVPVTFEWGYFPDKPYCFPEELISEFIKQCNLPGVLGEKHASGTIIIDELGEKHIRTGKPIVYTSADSVFQIAAHEEAFGLQRLYDICKIARNLVDKYQIGRVIARPFTGKPGSFKRTGNRKDYATPPPEKTLLDFLKEDGREVIAIGKIADIYAHQGVTQEIKADGNMALFDATLSAMKTAPQGSLVFTNFVDFDSSYGHRRDIAGYAHALEQFDARLPELDALLQPDDMVFIAADHGCDPTFPGSDHTREHIPVLVFGPQVNSKFIGRRDCFADIGQSIAEHLQLSSPLAHGVSFL”, for which the protein production result is “failed”.
With “MIESRRFVSDVMITFIASLVNIIISFPISVVIGRYLGVEDLGAYRLVFSIYGLSLLFANAGIPAAVIKQISEIKEDPKSTVKVISSSFFTSSLLGIFFLIFYLLFAETLSNIFGTPELADLIRIISLSFPFSVTGSTMLATLNGFRDMKKHATAILIQSVLMLFFTILSITFGYGVNGAVGASVISSIGYCVYLLRYLGKYIKIINFSDAVHYSKSMITFGLQTVVANAVNLINFQADTIMVGYFLTKTDVGFYSVAVLLAKLLWLIPDSIQKITYPLISEHYNNSGTEYINRAIETIMKYTMCISIVIGSGMIFYGEGIITSIYGASFIESVNPYYILIVGTMIFSIVKCVNSLFASIGRVDLFAKIPTYSAAVNILLNLVLIPIYHINGAAIATSTSLLIYVLVMIYYMKKLVNIHINVIWYSKAIFLFAMLIIINYILSLFTPFNSSGILTVSLGCLLLWIYILEPSDRVFFLSLVTKLKSLSLN”, the protein production entry is listed as “failed”.
Turning to “MRFDGAAGLAQRMPMLGRVVQAAPLALLLGCCLILTLPASGRTLFYILCSLSLLFLPLAMFQRLEAKPKALNLLLSFALLIFIGFRAAWLWYFPAPTDAGLFPVAFAYQLSNKIWLSALPLLLFPLWSPFRERLSPAGATLALVSASALLSMITLKAWYDAHGVRVGLGSLYATGAAYLLSAIHFFALLLFHPFRLKKWQWLGLCLLIALQFMSIVATGTRAALLVYLFVLGCALLWRFGLHQSWRTYAIAALLSVATLWLSWAAVGSRVKQAQADLIAYSQGNADTSLGIRFSLWDAGVHAVREQPWGQSIQARDVLFHQLVKDGALNKAALIMRDVHLHNEWLEILSLQGLPGALSWLIFLLGFGVYGWKRGGFFRRFALFYIGFWLVFGLSDVLLLSPQIAMFGAMFAALGLYLAPIFDARDERRL”, the protein production entry was “failed”.
For “KAPNLYMTDTTGTYRYLYDVQAKYTILFFWDSQCGHCQQETPKLYDWWLKNRAKGIQVYAANIERKDEEWLKFIRSKKIGGWLNVRDSKNHTDFKITYDIYATPVLYVLDKNKVIIAKRIGYENLDDFLVQYEKSLKTK”, the protein production result is recorded as “not failed”.
The value for “MPPPTASTPDDSADPGPDFADVPPTDLVKVGFIFRPHGLDGELKIDPSATDDPARFEVLPTVFVGPHPRRVVRHDIASVRYQKTKRGITVILGLDGIVDRDDAEAVAKMDVFATEAALGLEDDELFADDLVGWTVVTEEGAVQGTVADFMEMPAQDLFVVRTPEDTEAMIPAIDDFIIEIDEEAERIVVRPIDGLMDALEHHHHHH” was “failed”; that for “MWNIATAAATLLVAFAATRAYAADIGYLAPPGVAANEFPSPQRPVARIVSPRRASEEHRDALNEAGQIARVLELKPGMTVGDIGAGSGYHTVRLSYLVAPAGSVVAQDVTRDYLIELARRTKLLKLTNVQFALGEPHDPRLPASSLDAAILVHMYHEIAQPYAFLYNLAPALKQGARVGIVDLELPTSKHGTPIELLRCELTAVGYREVATYKLEGDGGYLAVFSPPEVAGRKSPRDIVACRDPAGTR” was “failed”; that for “MRERRYSSTSPERLAAALFDVAAESGLEGASVREVAKRAGVSIGAVQHHFSTKDEMFAFALRTLVDKLLARLSEVERGGDPARALFAAMSQLLPLDEARSREAHVMAAFAVRAATSPSLAEIRRKTLFTIRTGLSAVLIGIGTPEAETRAALLLATVDGLALDAIGSPALYPPEYLEHALDIQIGMILQGADVVPSSSIELAS” was “not failed”.
Regarding “GPSSSHTVGPMLAANAFLQLLEQKNLFDKTQRVKVELYGSLALTGKGHGTDKAILNGLENKAPETVDPASMIPRMHEILDSNLLNLAGKKEIPFHEATDFLFLQKELLPKHSNGMRFSAFDGNANLLIEQVYYSIGGGFITTEEDFDK”, the protein production result is “not failed”.
As for “VLLAITTGLVASLVNAKAYKGAEIFTNDAYLYGRYEIRMRVANASGILSTFFTYKNGSEVGNTFWEEIDIEVFGKNNATQWQSNIILGSSRPTIHTEEIHTADTSLADAYHTYVVEWTPDYVAWFLDGVEVRRITGTSTVTSLTNAQSLRFNIWSSESVPWVGAWDDSVLPVYQFVNYIDYKAYNATTKTFEGGWRDDFNNFDSSRWGKANWSFDMNRVDFAPENALVKDGILVLALTKENATGFNGTPPADEPASSSSSVAASSTPASSIAASSIAASVAASSVAVATSSVAASKASGGGSGGGAINGMWLLMLGSFVLLGWVHNQRQSHQQHQ”, the protein production entry was “failed”.
For the sequence “NKSIRMTPSQVAFEIRGTLLPGEVFAICGSCDALGNWNPQNAVALLPENDTGESMLWKATIVLSRGVSVQYRYFKGYFLEPKTIGGPCQVIVHKWETHLQPRSITPLESEIIIDDGQFGIHNGVETLDSGWLTCQTEIRLRLHYSEKPPVSITKKKLKKSRFRVKLTLEGLEEDDDDRVSPTVLHKMSNSLEISLISDNEFKCRHSQPECGYGLQPDRWTEYSIQTMEPDNLELIFDFFEEDLSEHVVQGDALPGHVGTACLLSSTIAESGKSAGILTLPIMSRNSRKTIGKVRVDYIIIKPLPGYSCDMKSSFSKYWKPRIPLDVGHRGAGNSTTTAQLAKVQENTIASLRNAASHGAAFVEFDVHLSKDFVPVVYHDLTCCLTMKKKFDADPVELFEIPVKELTFDQLQLLKLTHVTALKSKDRKESVVQEENSFSENQPFPSLKMVLESLPEDVGFNIEIKWICQQRDGMWDGNLSTYFDMNLFLDIILKTVLENSGKRRIVFSSFDADICTMVRQKQNKYPILFLTQGKSEIYPELMDLRSRTTPIAMSFAQFENLLGINVHTEDLLRNPSYIQEAKAKGLVIFCWGDDTNDPENRRKLKELGVNGLIYDRIYDWMPEQPNIFQVEQLERLKQELPELKSCLCPTVSRFVPSSLCGESDIHVDANGIDNVENA”, the protein production result was “not failed”.
With “MMWEQFKKEKLRGYLEAKNQRKVDFDIVELLDLINSFDDFVTLSSCSGRIAVVDLEKPGDKASSLFLGKWHEGVEVSEVAEAALRSRKVAWLIQYPPIIHVACRNIGAAKLLMNAANTAGFRRSGVISLSNYVVEIASLERIELPVAEKGLMLVDDAYLSYVVRWANEKLLKGKEKLGRLQEALESLQRENAYCSD”, the protein production result is recorded as “not failed”.
Regarding “MEPGLDGGYLLLGVDWAINDKGDTVYRPVGLPDPDKVQRDLASQCASMLNVALRPEMQLEQVGGKTLLVVYVPEADVTHKPIYKKATGLPGGAYRRIGSSDQRCVLEHHHHHH”, the protein production entry was “failed”.
The value for “MSKIEDIRKFYARLMAANAASSDPRLEQVFATVPREAFLGPGPWTIVAGSGRVTTPSADPAHIYQNVLVALDADKGINNGEPFLHAMWIGKLAPKPGEAVTHVGAGTGYYSAVLARLVSPGGTVTAFELEGRLADLARKNLEIYGNATVIHGDAVTRPLPPSDIIYVNAGVVAPPVGWLKALRPGGRMIFPWRPSERVPLAVMVTRTEKGFACDPFMRSWFIPCIGASVADLAAKIPTPEQATRSRSIWLTQHKAPDRTATAIFGDVWFSTKDVRAKPGS” was “failed”.
